The target of the assay is T1, LC-myc with the second NPxY motif mutated to APxA (UniProt Q07954 3944-4544, limits assumed).
T1 construct: domain: light chain (LC); The substitutions have no printed residue numbers; also called 2nd NPxY mutant; not shown: C-terminal myc tag
T1 sequence (looked up): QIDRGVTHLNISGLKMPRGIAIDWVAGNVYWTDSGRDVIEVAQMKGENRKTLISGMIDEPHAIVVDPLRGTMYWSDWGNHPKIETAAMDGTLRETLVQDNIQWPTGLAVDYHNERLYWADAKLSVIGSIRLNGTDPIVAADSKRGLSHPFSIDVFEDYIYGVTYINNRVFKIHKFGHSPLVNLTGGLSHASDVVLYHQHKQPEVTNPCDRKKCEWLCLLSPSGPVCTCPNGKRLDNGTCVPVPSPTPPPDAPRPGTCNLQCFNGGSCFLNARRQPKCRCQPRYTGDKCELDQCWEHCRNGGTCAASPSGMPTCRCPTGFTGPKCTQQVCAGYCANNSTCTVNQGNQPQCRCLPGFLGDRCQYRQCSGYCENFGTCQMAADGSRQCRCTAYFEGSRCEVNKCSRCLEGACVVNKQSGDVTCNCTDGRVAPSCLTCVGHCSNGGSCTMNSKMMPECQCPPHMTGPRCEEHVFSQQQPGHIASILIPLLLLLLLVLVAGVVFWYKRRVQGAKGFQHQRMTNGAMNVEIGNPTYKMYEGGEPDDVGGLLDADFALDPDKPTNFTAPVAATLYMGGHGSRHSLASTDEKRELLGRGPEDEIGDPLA
In words: FLIM/FRET in cells.

B1: BACE (wild type; tag of the construct not stated at that place) (enzyme, human, UniProt P56817 46-501, looked up)
chain: ETDEEPEEPGRRGSFVEMVDNLRGKSGQGYYVEMTVGSPPQTLNILVDTGSSNFAVGAAPHPFLHRYYQRQLSSTYRDLRKGVYVPYTQGKWEGELGTDLVSIPHGPNVTVRANIAAITESDKFFINGSNWEGILGLAYAEIARPDDSLEPFFDSLVKQTHVPNLFSLQLCGAGFPLNQSEVLASVGGSMIIGGIDHSLYTGSLWYTPIRREWYYEVIIVRVEINGQDLKMDCKEYNYDKSIVDSGTTNLRLPKKVFEAAVKSIKAASSTEKFPDGFWLGEQLVCWQAGTTPWNIFPVISLYLMGEVTNQSFRITILPQQYLRPVEDVATSQDDCYKFAISQSSTGTVMGAVIMEGFYVVFDRARKRIGFAVSACHVHDEFRTAAVEGPFVTLDMEDCGYNIPQTDESTLMTIAYVMAAICALFMLPLCLMVCQWRCLRCLRQQHDDFADDISLLK
notes: whole, on cells; Used for the sentences that say only BACE or WT-BACE (NPxY mutant FLIM, Fe65 and mDab1 FRET, shedding, CTF and luciferase assays); also called WT-BACE
Turning to B1, the binding result was “binds”.

For the origin of these results see patent publication US20060034848A1 (published 2006).
